No end group written: not given here.
Experiments:
GC-C in T84 cells = biological target: T1, GC-C in T84 cells (Homo sapiens, UniProt P25092); experiment: Cyclic GMP accumulation in T84 cells; type: cell-based; settings: for bioactivity of purified urine peaks in T84 cell cyclic GMP bioassay: peptides purified from human urine, microbore HPLC C8
T1 construct: host or cells: T84 human colon carcinoma cells
Method: (§1) FIG. 3(a) and (b). FIG. 3(a) Concentration-response effect of synthetic human uroguanylin, human guanylin and E. coli ST5-18 (STa) on cyclic GMP levels in T84 cells. The cells were incubated with various concentrations of ligands for 30 min. Values represent mean±SE (n=4). FIG. 3(b) Displacement of ^125 I-STa specific binding from T84 cells by human uroguanylin, human guanylin and STa. Cells were incubated for 30 min at 37° C. with labeled STa and indicated concentrations of ligands. Specific binding (%) was determined by dividing the specifically bound ^125 I-STa at each ligand concentration by the specifically bound ^125 I-STa in the absence of ligands. Each determination represents the mean of four wells examined.
Cell Culture. A cultured human colon carcinoma cell line (T84) was obtained from the American Type Culture Collection (Rockville, Maryland) (ATCC No. CCL 248) at passage 52. Cells were grown to confluency in 24-well culture plates with a 1:1 mixture of Ham's F12 medium and Dulbecco's modified Eagle's medium (DMEM), supplemented with 10% fetal calf serum, 100 IU/ml penicillin, and 100 μg/ml streptomycin. Cells were used at passages 54-60.
Cyclic GMP determination. Monolayers of T84 cells in 24-well plates were washed twice with 1 ml/well DMEM, then incubated at 37° C. for 10 min with 0.5 ml DMEM containing 1 mM isobutylmethylxanthine, a phosphodiesterase inhibitor. Agents and fractions were then added for the indicated time as described in the results section, below. The media was then aspirated and the reaction terminated by the addition of ice cold 0.5 ml of 0.1N HC1. Aliquots were then evaporated to dryness under nitrogen and then resuspended in 5 mM sodium acetate buffer, pH 6.4. The samples were then measured for cyclic GMP by conventional RIA as described by Steiner et al. (13).

rat proximal colon = experiment: Short-circuit current (Isc) in rat proximal colon, Ussing chamber; settings: 0.2 μM, mucosal addition
Method: FIG. 4. Effect of synthetic human uroguanylin on short-circuit current (Isc) of rat colon. Effect of human uroguanylin (0.2 μM) on Isc across rat proximal colon after a mucosal addition. The response is characteristic of results from 3 other experiments.
Measurement of Short-Circuit Current (ISc) in Rat Colon. Rat proximal colon tissue, consisting of only mucosa and submucosa, was mounted between two Ussing half-chambers and bathed on both sides similar to previously reported (3). Electrical measurements were monitored with an automatic voltage clamp, and direct connecting voltage-and current-passing electrodes were used to measure trans epithelial potential difference and Isc. Tissues were equilibrated under short-circuit conditions until Isc had stabilized.

receptors on T84 cells = biological target: T2, receptors on T84 cells (Homo sapiens, UniProt P25092); experiment: 125I-ST radioligand competitive binding assay on T84 cells; settings: 30 min at 37° C., pH 5.5
T2 construct: host or cells: T84 human colon carcinoma cells
T2 sequence (P25092 24-1073): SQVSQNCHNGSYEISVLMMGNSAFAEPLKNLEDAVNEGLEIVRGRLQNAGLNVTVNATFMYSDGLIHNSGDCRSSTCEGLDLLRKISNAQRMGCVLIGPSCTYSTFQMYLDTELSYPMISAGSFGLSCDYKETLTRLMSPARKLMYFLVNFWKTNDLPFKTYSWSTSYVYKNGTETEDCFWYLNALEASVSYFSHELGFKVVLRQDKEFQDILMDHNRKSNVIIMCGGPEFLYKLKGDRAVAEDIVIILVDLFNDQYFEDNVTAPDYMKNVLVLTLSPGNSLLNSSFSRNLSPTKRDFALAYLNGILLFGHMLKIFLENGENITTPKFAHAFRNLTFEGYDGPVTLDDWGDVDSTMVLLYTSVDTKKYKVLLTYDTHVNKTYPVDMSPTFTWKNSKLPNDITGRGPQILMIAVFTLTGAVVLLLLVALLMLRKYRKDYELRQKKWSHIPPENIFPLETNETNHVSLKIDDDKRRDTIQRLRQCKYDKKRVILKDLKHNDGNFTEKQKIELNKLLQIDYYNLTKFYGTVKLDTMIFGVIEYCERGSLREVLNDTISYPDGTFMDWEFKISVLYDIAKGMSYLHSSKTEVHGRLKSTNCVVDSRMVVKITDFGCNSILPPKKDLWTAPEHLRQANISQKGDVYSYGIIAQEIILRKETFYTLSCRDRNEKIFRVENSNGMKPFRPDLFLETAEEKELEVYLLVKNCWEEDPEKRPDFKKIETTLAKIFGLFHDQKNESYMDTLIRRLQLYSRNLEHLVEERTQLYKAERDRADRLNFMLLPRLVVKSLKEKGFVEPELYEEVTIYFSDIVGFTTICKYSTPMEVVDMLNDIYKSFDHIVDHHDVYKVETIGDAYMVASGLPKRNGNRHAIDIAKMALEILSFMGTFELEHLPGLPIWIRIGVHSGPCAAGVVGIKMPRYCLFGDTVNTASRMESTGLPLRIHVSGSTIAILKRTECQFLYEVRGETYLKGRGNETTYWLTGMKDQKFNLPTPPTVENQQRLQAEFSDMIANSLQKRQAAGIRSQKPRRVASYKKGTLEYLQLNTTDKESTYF
Method: as §1
Radioligand Binding Assay. ^125 I-labeled ST5-18 (^125 I-ST) was prepared by the Iodo-Gen method as previously described (3). T84 cell monolayers were washed two times with 1.0 ml per well of ice-cold binding assay buffer (Earle's medium containing 25 mM 2[N-Morpholino]ethanesulfonic acid (MES), pH 5.5). The cells were incubated for 30 min at 37° C. in 0.5 ml per well of binding assay buffer with ^125 I-ST (100,000 cpm per well) and unlabeled peptides. […] This volume was transferred to tubes and assayed for radioactivity by a multigamma counter. Results are expressed as the percentage specifically bound.

T1 sequence (P25092 24-1073): as above

Substance | bioactivity of purified urine peaks in T84 cell cyclic GMP bioassay (GC-C in T84 cells) | effect on short-circuit current (Isc) of rat proximal colon (rat proximal colon) | effect on T84 cell cyclic GMP levels (GC-C in T84 cells; T84 cells, 30 min incubation with ligand, 1 mM isobutylmethylxanthine) | relative potency for activation of GC-C in T84 cells (GC-C in T84 cells; T84 cells, cyclic GMP, concentration-response) | relative affinity, displacement of 125I-ST5-18 specific binding from T84 cells (receptors on T84 cells)
DDCELCVNVACTGCL [peak 2, peptide from human urine lacking the N-terminal asparagine, likely a degradation product of peak 1] | bioactive | – | – | – | –
NDDCELCVNVACTGCL [human uroguanylin, sedecapeptide, endogenous regulator of intestinal guanylate cyclase, isolated from human urine and chemically synthesized] | bioactive | sustained rise in Isc | concentration-dependent increase | more potent than human guanylin, but less potent than ST | –
human guanylin: first known endogenous activator of intestinal guanylate cyclase (PGTCEICAYAACTGC; ends and bridges not checked; cysteine pairing not given here; UniProt Q02747 101-115, looked up) | – | – | – | – | much lower affinity

Source: patent US5489670A, “Human uroguanylin” (G. D. Searle & Co., priority 1993, dated 1996)
